Columns and labels:
[1] = molecular target: T1, prostate specific membrane antigen (PSMA), full-length human (human, UniProt Q04609 1-750); experiment: cell-based or functional assay
[2] = molecular target: T1, prostate specific membrane antigen …; experiment: cell-based or functional assay; remark: listed apart in the source
[3] = molecular target: T2, recombinant soluble PSMA (rsPSMA) (human, UniProt Q04609 44-750); experiment: Biacore, purified mAb captured, rsPSMA in flow
T2 construct: Oligomeric state of the preparation not specified in the assay concerned; also called secreted rsPSMA; PSMAECTO
T2 sequence (Q04609 44-750): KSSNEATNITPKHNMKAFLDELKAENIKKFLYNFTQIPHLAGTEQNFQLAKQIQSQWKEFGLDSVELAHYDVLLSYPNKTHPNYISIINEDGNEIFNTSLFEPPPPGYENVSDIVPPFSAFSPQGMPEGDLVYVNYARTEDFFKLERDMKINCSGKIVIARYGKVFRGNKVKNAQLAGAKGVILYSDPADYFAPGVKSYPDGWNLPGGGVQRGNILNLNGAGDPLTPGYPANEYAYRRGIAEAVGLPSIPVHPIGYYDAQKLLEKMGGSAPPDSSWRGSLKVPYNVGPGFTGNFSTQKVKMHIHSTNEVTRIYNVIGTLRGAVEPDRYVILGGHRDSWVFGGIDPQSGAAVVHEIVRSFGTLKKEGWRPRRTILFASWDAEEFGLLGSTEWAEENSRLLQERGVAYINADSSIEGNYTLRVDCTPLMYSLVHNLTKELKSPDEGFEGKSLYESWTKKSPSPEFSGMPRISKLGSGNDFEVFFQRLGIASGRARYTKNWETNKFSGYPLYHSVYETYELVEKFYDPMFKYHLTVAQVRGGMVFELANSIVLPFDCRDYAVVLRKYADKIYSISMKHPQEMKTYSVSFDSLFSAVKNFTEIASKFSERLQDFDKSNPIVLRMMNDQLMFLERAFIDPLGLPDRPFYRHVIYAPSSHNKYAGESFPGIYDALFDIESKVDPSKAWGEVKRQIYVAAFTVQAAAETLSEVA
Experimental: (§1) To determine the kinetics and affinity of the antibodies, the antibodies in crude supernatants, in purified form and in bifunctional chelate modified forms were analyzed using a Biacore 3000 instrument (Biacore Inc., Piscataway, N.J.). Biacore 3000 is a fully automated surface plasmon resonance (SPR)-based biosensor system that is designed to provide real-time kinetic data from assay formats that require no tags or labeling of compounds for biomolecular interactions. It is ideal for screening crude supernatants.
(§2) The streptavidin-coated sensor chips (SA chips, Biacore) were used to capture biotinylated anti-human IgG antibody (Sigma, St. Louis, Mo.). The entire sensor chip surface was conditioned with five injections of conditioning solution (1 M NaCl, 50 mM NaOH) and equilibrated with PBS buffer containing 0.005% polysorbate 20. Two to three thousand resonance units (RU) of biotinylated anti-human IgG antibody (Sigma) were immobilized onto the SA chip followed by an injection of regeneration buffer (glycine-HCl, pH 2.2). […] For each antibody at one concentration, the chip was regenerated and equilibrated. […] Thermodynamic and kinetic rate constants of binding were calculated using the Biacore Evaluation software.

[4] = molecular target: T2, recombinant soluble PSMA (rsPSMA); experiment: Biacore, mAb captured on anti-human IgG, rsPSMA in flow; crude supernatant
Experimental: as §1, §2

T1 sequence (Q04609 whole entry): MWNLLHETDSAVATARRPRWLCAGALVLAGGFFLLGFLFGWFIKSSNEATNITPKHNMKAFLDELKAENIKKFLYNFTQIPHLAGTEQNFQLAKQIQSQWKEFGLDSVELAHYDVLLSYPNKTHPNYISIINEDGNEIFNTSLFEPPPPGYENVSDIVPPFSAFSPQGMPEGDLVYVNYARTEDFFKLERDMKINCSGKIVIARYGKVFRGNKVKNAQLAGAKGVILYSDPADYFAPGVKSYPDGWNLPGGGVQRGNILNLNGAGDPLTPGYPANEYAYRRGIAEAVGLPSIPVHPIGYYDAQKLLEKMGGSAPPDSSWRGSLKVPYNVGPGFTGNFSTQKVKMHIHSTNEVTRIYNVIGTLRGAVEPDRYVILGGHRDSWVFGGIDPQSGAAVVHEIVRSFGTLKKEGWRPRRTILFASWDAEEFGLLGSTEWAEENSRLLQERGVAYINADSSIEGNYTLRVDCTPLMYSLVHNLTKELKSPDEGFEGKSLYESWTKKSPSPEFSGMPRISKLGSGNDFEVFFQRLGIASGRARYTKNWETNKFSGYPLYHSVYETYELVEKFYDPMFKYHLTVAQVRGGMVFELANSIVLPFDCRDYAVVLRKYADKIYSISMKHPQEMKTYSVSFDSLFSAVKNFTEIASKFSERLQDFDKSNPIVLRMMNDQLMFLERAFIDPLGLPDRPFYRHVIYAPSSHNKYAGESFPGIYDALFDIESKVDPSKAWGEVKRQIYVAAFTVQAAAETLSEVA

B1: 225Ac labeled mAb 026 (antibody, human IgG1, V domains shown)
VH: QVQLVESGGGVVQPGRSLRLSCAASGFTFSNYVMHWVRQAPGKGLEWVAIIWYDGSNKYYADSVKGRFTISRDNSKNTLYLQMNSLRAEDTAVYYCAGGYNWNYEYHYYGMDVWGQGTTVTVSS
VL: DIQMTQSPSSLSASVGDRVTITCRASQGITNYLAWFQQKPGKAPKSLIYAASSLQSGVPSKFSGSGSGTDFSLTISSLQPEDFATYYCQQYNSYPITFGQGTRLEIK
modifications: 225Ac chelated by bifunctional DOTA conjugated to the antibody, sites not stated
IC50, cell survival (Alamar Blue) of C4-2 and LNCaP cells [1]: < 1 nCi/mL | IC50, cell survival of C4-2 cells by 3H thymidine incorporation [1]: 0.12 nCi/mL | selectivity of killing, C4-2 vs PC3 [1]: > 50 fold

B2: 026 (antibody, V domains shown)
VH: QVQLVESGGGVVQPGRSLRLSCAASGFTFSNYVMHWVRQAPGKGLEWVAIIWYDGSNKYYADSVKGRFTISRDNSKNTLYLQMNSLRAEDTAVYYCAGGYNWNYEYHYYGMDVWGQGTTVTVSS
VL: DIQMTQSPSSLSASVGDRVTITCRASQGITNYLAWFQQKPGKAPKSLIYAASSLQSGVPSKFSGSGSGTDFSLTISSLQPEDFATYYCQQYNSYPITFGQGTRLEIK
PSMA+/PSMA- Ratio of tumor uptake, Mean [2]: 5.55

B3: 006 (antibody, V domains shown)
VH: QVQLVESGGGVVQPGRSLRLSCAASGFAFSRYGMHWVRQAPGKGLEWVAVIWYDGSNKYYADSVKGRFTISRDNSKNTQYLQMNSLRAEDTAVYYCARGGDFLYYYYYGMDVWGQGTTVTVSS
VL: DIQMTQSPSSLSASVGDRVTITCRASQGISNYLAWYQQKTGKVPKFLIYEASTLQSGVPSRFSGGGSGTDFTLTISSLQPEDVATYYCQNYNSAPFTFGPGTKVDIK
PSMA+/PSMA- Ratio of tumor uptake, Mean [2]: 4.27

B4: PSMA 10.3 (antibody, V domains shown)
VH: QEQLVESGGGVVQPGRSLRLSCAASGFTFSTYGMHWVRQAPGKGLEWVAVTWHDGSNKYYADSVKGRFTISRDNSKNTLYLQMNSLRAEDTAVYYCARGGVGATYYYYYGMDVWGQGTTVTVSS
VL: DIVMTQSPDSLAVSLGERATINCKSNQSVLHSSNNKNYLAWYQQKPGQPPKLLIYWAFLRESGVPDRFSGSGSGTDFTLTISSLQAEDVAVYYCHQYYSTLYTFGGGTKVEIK
notes: human antibody from XenoMouse
Kd [3]: 0.217 nM | koff [4]: 0.000363 s⁻¹
